Experimental data from the supplement of paper PMC10126150.
± gives the standard deviation of the averaged measurements.

Test system: ATP
Assay: switch fluorescence ratio, 500 uM ATP over buffer (Cy3 cluster intensity, sum of 5 cycles each) (fold (ratio)); higher = stronger signal-on switching upon ATP binding; sequences stand for … in TCGTCGGCAGCGTCAGATGTGTATAAGAGACAGTTTTTTTTTTTTTTTTTTTTTTTTT…TC
Conditions: aptamer strand: ATP DNA aptamer (quencher-CACCTGGGGGAGTATTGCGGAGGAAGG + anchor), 100 nM annealed; ATP concentration: 500 uM
How it was run: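 Imaging in selection buffer was followed by imaging after 15 min with 500 uM ATP at 22 °C, for Cy3-labelled switching-strand clusters annealed to 100 nM quencher-labelled ATP aptamer on a modified Illumina MiSeq flow-cell. Five of these buffer/ATP cycles ran, separated by NaOH stripping and re-annealing. The fluorescence ratio per cluster is summed target-cycle over summed buffer-cycle Cy3 intensity, averaged per switch-domain sequence; clusters outside 100-1000 RFU were removed.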
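Note: ATP exposure 15 min at 22 °C before imaging.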

Sequence | switch fluorescence ratio
CGATTTAGCT | 0.988 ± 0.037
AGTGTCCAGT | 1 ± 0.028
TGAGTTTGGT | 0.97 ± 0.018
ACTCCGACCG | 1.72 ± 0.14
AACCAGTGGC | 1.06 ± 0.079
GCTTAGAGGA | 1 ± 0.03
ATCGGCATGC | 1.19 ± 0.019
ATTTGTTGGT | 0.991 ± 0.013
ATCCTATTT | 1.01 ± 0.028
TGGGGGCTTA | 0.99 ± 0.059
CTTAGGCCAG | 0.998 ± 0.032
CGTAAGTTTT | 0.98 ± 0.03
ATATAGGGGA | 1.02 ± 0.051
AACGAGAGGA | 0.986 ± 0.012
ACGGAGGGAT | 1.32 ± 0.032
AGGGGGGCCA | 1.02 ± 0.028
GAGGTTGTG | 1.01 ± 0.025
GTCTAAGGGG | 1.11 ± 0.25
TTTTGGAGAA | 1.02 ± 0.037
ATTTTTTGCG | 1 ± 0.028
TTGGGCGTTC | 1.12 ± 0.15
TACCATGACC | 1.109 ± 0.0081
AGATAGAGCG | 1.01 ± 0.024

Sequence | switch fluorescence ratio
GCTGAAAGGC | 1.09 ± 0.061
TTGGTTGTAA | 1.03 ± 0.059
GATACGAACG | 1.32 ± 0.043
CCAAAGTACG | 1.25 ± 0.018
AAGTGGCTTT | 1 ± 0.014
TGCGTTTTTA | 1 ± 0.043
TTGATCTCGG | 1.014 ± 0.0061
ACTAAATCGG | 1.02 ± 0.039
TGGTGAACGT | 1 ± 0.053
AGATGGGGCA | 0.9774 ± 0.0024
CTGAAAGAGT | 0.976 ± 0.026
AATGTACTTT | 1.03 ± 0.032
GGGAAAAAAT | 1 ± 0.035
CTTTTATAGT | 0.984 ± 0.02
CGTGATGGAG | 1.011 ± 0.009
ATACTCAGCC | 1.14 ± 0.041
ATGTGAGGGA | 0.991 ± 0.02
GGGGTGTGAC | 1.022 ± 0.0026
ATCGTAGGTC | 0.982 ± 0.052
GCAGGGTGTC | 1.08 ± 0.048
AGTAAGGTTA | 1 ± 0.024
AGGGTGAATA | 1.005 ± 0.0027
CCAGTGTTCT | 1.01 ± 0.024

Sequence | switch fluorescence ratio
GAACGTGGGT | 0.987 ± 0.052
GCTGCTTGCG | 1 ± 0.014
AGGTGCCTG | 0.971 ± 0.035
AAAGCGTGTG | 1.01 ± 0.043
TTTCGGTCGG | 1.04 ± 0.046
TGAGGTTTAG | 1.02 ± 0.028
TAGAGTTGTT | 0.984 ± 0.03
TCAATGTAGT | 1 ± 0.058
CGTTTTTAAT | 1.01 ± 0.021
GATTTTCAGA | 0.998 ± 0.027
ATAGGGGATT | 1 ± 0.038
AGGTTACGAG | 1 ± 0.02
CATGTGGGGG | 0.985 ± 0.027
GAATTTTGGG | 1 ± 0.032
TATTGATGGT | 0.994 ± 0.019
TGGTATATTA | 0.983 ± 0.027
TGGGGATAGC | 1.02 ± 0.053
AGTTTCTTAT | 0.995 ± 0.028
GTTTTAGATA | 0.993 ± 0.031
GATCGTACTT | 1.08 ± 0.015
TGCGGTTTAG | 1.04 ± 0.016
GGGGTAGCAT | 0.986 ± 0.028
CTAGATGCTT | 1.012 ± 0.0096

Sequence | switch fluorescence ratio
TGAGAAGGGA | 1.02 ± 0.22
GTTTAAGTTT | 0.996 ± 0.022
ATATGGTGAT | 1 ± 0.057
CCCATGATGG | 1.01 ± 0.046
AGAAAGGGTG | 1.14 ± 0.074
CATCGGCCGC | 1.0223 ± 0.00032
TTTCCCGGAT | 1.1 ± 0.14
TTTGCCGGAC | 1.04 ± 0.062
TGATTAAGAT | 0.994 ± 0.026
TATAGTAGTG | 0.973 ± 0.014
TTTTTTCAAC | 1.15 ± 0.26
AGGGTCTGGG | 0.993 ± 0.034
TAGGTTCGAC | 0.972 ± 0.031
GGTTCTTTAG | 1.015 ± 0.0033
GGCTGCACGG | 1.013 ± 0.01
GGCTCGGGAC | 1.01 ± 0.039
CGGGTTTCGC | 0.986 ± 0.014
TTTGTGAGTT | 1.017 ± 0.0042
GTGTGCGGTG | 0.982 ± 0.015
TGGTGGGTGC | 1.04 ± 0.044
ATGAGGAATG | 1.008 ± 0.0043
GAAGGCACTA | 1.03 ± 0.045
TGCATTAATG | 0.989 ± 0.012

Sequence | switch fluorescence ratio
TGTGATGAT | 1.01 ± 0.028
CGGCTTTGGA | 1.056 ± 0.0019
TAGTTGCATT | 0.994 ± 0.003
CACAGGGGGG | 1.19 ± 0.34
GGTGTTGGAC | 0.997 ± 0.019
TATGGAGCGT | 1.04 ± 0.018
GTGGGGGTTC | 0.985 ± 0.041
AATTTTGGAC | 1.01 ± 0.017
TTTTTTAGAA | 1.01 ± 0.025
ATTAGGTATG | 0.969 ± 0.016
TTTTTGAGAT | 0.994 ± 0.03
GCCTCAGACA | 1.047 ± 0.0092
AAGGGGTGGA | 1.01 ± 0.05
GAATAGCATA | 1.05 ± 0.018
CGGTAAGGCA | 0.99 ± 0.017
CCTTTTGGTG | 1.38 ± 0.44
TGGCGGGTTA | 0.988 ± 0.067
CCGGTTCAGG | 1.05 ± 0.016
TGGTCGTCGG | 0.985 ± 0.037
TTCTAATCCG | 1.036 ± 0.0091
GGGGGATTTT | 0.999 ± 0.027
GTTTCGTATA | 0.997 ± 0.044
GGCATCAGGG | 1.02 ± 0.013

Sequence | switch fluorescence ratio
GGGACACGGT | 0.987 ± 0.023
CATTGACCTT | 1.23 ± 0.067
TCGTGCGGGT | 1.001 ± 0.0081
CGGGGTGTTA | 1.07 ± 0.057
TAAGAAGTTA | 1.02 ± 0.03
CCGGGGGGGC | 1.32 ± 0.66
GCGAAAGGT | 0.9846 ± 0.0017
CGCGGTGTCC | 1.02 ± 0.011
TGCATTCTTT | 0.9999 ± 0.0052
GACTCCTGAG | 0.98 ± 0.033
GGGGGCAGAG | 0.991 ± 0.035
AAGTTCAGTG | 1.014 ± 0.0068
GGGTCTTGGC | 1.0357 ± 0.00074
GGAAAGTGAT | 1.2 ± 0.26
CCGGTTGTTG | 1.027 ± 0.0079
CATGGTTTTG | 1 ± 0.023
GAAATGTAGG | 0.995 ± 0.034
TCTGGGAGGT | 0.975 ± 0.02
ACTGGGTCCT | 0.973 ± 0.015
TTTGGTGCTG | 0.983 ± 0.06
TTGAGAGGAG | 0.98 ± 0.02
TATACACGGA | 1.08 ± 0.015
AGAGTAAAGT | 0.98 ± 0.015

Sequence | switch fluorescence ratio
GATTGAGGAA | 0.9864 ± 0.0061
CGGTTGCGGA | 0.995 ± 0.051
TTTCGAAACT | 1 ± 0.038
GACGAGGG | 1.03 ± 0.038
TTACGTAAGG | 1.23 ± 0.051
AAGGTTATCT | 1.005 ± 0.0068
GGGGCCGGGT | 0.998 ± 0.02
ACGTGAGTTT | 0.957 ± 0.035
ACGTATGTTG | 1.022 ± 0.0017
ACATCCAACG | 1.12 ± 0.028
CGGTTTATGC | 1.09 ± 0.052
GACTGGGGCA | 1.017 ± 0.0053
AGTTGAGTTA | 1 ± 0.011
TGCTGTTGTA | 0.998 ± 0.033
GCGTATTTTT | 1.01 ± 0.029
AAGCCAGGCC | 1.03 ± 0.025
ACTGGGGATG | 0.963 ± 0.043
TAGATAGAGT | 0.994 ± 0.024
TACTTTTATA | 1.03 ± 0.017
